# Laboratory results reported in patent publication CN112759647A.
# Residue numbers refer to the chain shown, from its start.
# B1: 鼠抗体13C9 (antibody, from another filing, V domains shown)
# VH: QVQLKQSGAGLVKPGASVKLSCKASGYIFTEYIIHWVKQRSGQGLEWIGWFYPGSDNIKYNEKFKDKATLTADKSSSTVYMELSRLTSEDSAVYFCARHETGYFFDYWGQGTTLTVSS
# VL: DIVITQSPAIMSASPGEKVTMTCSASSSVSKMNWYQQKSGTSPKRWIYDTSKLASGVPSRFSGSGSGTSYSLTISSMEAEDAATYYCQQWSSNPLTFGSGTKLELKR
# B2: 鼠抗体8A2 (antibody, from another filing, V domains shown)
# VH: QVQLKQSGPGLVAPSQSLSITCTVSGFSLTGYGVNWVRQPPGKGLEWLGKIWGDGITDYNSALKSRLSISKDNSKSQVFLKMNSLQTDDTARYYCARDVMDYWGQGTSVTVSS
# VL: QIVLTQSPAIMSASPGEKVTMTCSASSSISYMHWYQQKPGTSPKRWIYDTSKLASGVPARFSGSESGTSYSLTISSMEAEDAATYYCHHRSPYPTFGAGTKLELK
# B3: 鼠抗体15G10 (antibody, from another filing, V domains shown)
# VH: QVQLKQSGPELVKPGASVKTSCKASGYTFTNYVVHWVKQNPGQGLEWIGYVNPNNDGTIFNEKFKDKAILTSDKSSSTAYMELSSLTSEDSAVYYCARSPFAHWGQGTLVTVSA
# VL: QIVLTQSPASLTVSLGQRATISCSASESVDFYGTSLMQWFQQKPGQPPKLLVYTASNVDSEVPARFSGSGSGTDFSLNIHPVEEDDIAMYFCHQTRKVPYTFGGGTKLEIK
# B4: 鼠抗体28B1 (antibody, from another filing, V domains shown)
# VH: QVQLKQSGAELVKPGASVMLSCTASAFNIDDTYIHWVKQRPEQGLEWIGRIDPANGNTDYDPECQGKATITTDMSSNTAYLQLSSLTSEDTAVYFCARGLRLPGLVYWGRGTLVTVSA
# VL: DIQMTQTTSSLSASLGDRVTISCRASQDISNYLNWYQQKPDGTVKLLIYYTSILYSGVPSRFSGSGSGTDYSLTINTLEEEDIATYFCQQGNTLPWTFGGGTKLEIIR
# B5: 鼠抗体22B10 (antibody, from another filing, V domains shown)
# VH: QVQLKQSGAELVKPGASVELSCTASGFNIEDTYLHWVNQRPEQGLEWIGRIDPANGNTYYDPKFQGKATITTDTSSNTAYLQLSRLTSEDTAVYYCARGLRLPGFPYWGQGTLVTVSA
# VL: B4 VL with T8P, N34S, Y55H, T74A, N76S, T77N, E79D, E80Q, I107K
# Target: 人PD-L1 on 293T-h-PDL1 cells (HEK293 stably expressing PD-L1) (human) (UniProt Q9NZQ7)
# Test: FACS, antibody on 293T-h-PDL1 cells
row,EC50 [mg/L],Binder
1,0.49,B1

# Target: 人PD-L1胞外区与人IgG1-FC的融合蛋白 (human) (UniProt Q9NZQ7)
# Test: FACS blocking: supernatant premixed with 500 ng PD-L1-hFc; competitor PD-1 on 293T-h-PD1 cells
row,IC50 [mg/L],Binder
1,5.17,B2
2,4,B3
3,1.95,B1
4,2.31,B4
5,4.31,B5

# Target: 人PD-L1 on 293T-h-PDL1 cells (HEK293 stably expressing PD-L1) (human) (UniProt Q9NZQ7)
# Test: FACS, hybridoma supernatant on 293T-h-PDL1 cells
row,EC50 [mg/L],Binder
1,0.336,B2
2,1.45,B3
3,0.44,B1
4,0.39,B4
5,0.517,B5
